In one data set the target is PrgB188-1233 (Enterococcus faecalis, UniProt Q04112). Description: isothermal titration calorimetry. The class given is binding. On the technique in general: Isothermal titration calorimetry measures the heat released or taken up as one component is titrated into another.
The target in another data set is PrgB246-558 (Enterococcus faecalis, UniProt Q04112). Put plainly: isothermal titration calorimetry. The class given is binding.
Data set [1] addresses PrgB246-558 adhesin domain (Enterococcus faecalis (plasmid pCF10), UniProt Q04112 246-558). Description: ITC.
For the next data set, the target named is PrgB188-1233 monomer (Enterococcus faecalis (plasmid pCF10), UniProt Q04112 188-1233). Put plainly: ITC.
In the next data set the target is PrgB188-1233 dimer (Enterococcus faecalis (plasmid pCF10), UniProt Q04112 188-1233). Put plainly: ITC.

For orientation: Kd means the free concentration of one partner at which half of the binding sites on the other are occupied at equilibrium, for simple one-to-one binding. Low readings indicate a tighter complex, high ones a looser complex.

`O=P(O)(O)OCC(O)CO` (centres unmarked) [glycerol phosphate]: the figures for the Kd at PrgB188-1233 and on PrgB246-558 were 309 ± 55.3 µM and 276 ± 71.2 µM, respectively.

B1: 19-bp dsDNA (dsDNA)
DNA 1: GGGGGCGGGGCGGGCGGCG
DNA 2: CGCCGCCCGCCCCGCCCCC
Consider B1, for which the dissociation constant (Kd) in data set [1] amounted to 46.2 ± 14.5 µM; in the data set with PrgB188-1233 monomer, 364 ± 73.8 µM; in the data set with PrgB188-1233 dimer it was 164 ± 42.4 µM.

Source of the values: PMC6158044 (Molecular microbiology, 2018).
